Values quoted from earlier work, collected in paper PMC3423493.

Experiments:
BMP2 (Homo sapiens) = BMP2 (Homo sapiens) (UniProt P12643)
[1] = target: Sclerostin (Homo sapiens) (UniProt Q9BQB4)
UniProt Q9BQB4, sequence (Q9BQB4 24-213): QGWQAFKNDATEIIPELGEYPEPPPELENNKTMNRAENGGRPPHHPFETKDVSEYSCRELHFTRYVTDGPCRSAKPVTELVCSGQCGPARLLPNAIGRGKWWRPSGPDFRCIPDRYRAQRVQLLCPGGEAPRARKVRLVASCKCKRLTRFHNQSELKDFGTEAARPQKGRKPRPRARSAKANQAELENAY

UniProt P12643, sequence (P12643 283-396): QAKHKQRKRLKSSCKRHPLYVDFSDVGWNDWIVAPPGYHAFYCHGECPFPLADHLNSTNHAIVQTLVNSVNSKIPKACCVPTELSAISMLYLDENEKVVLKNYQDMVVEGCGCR

In the case of Noggin (from UniProt Q13253), the Kd (BMP2 (Homo sapiens)) is listed as 0.02 nM and the Kd [1] is listed as 2.92 nM.
